Experiment [1] addresses T1, human Calcitonin Gene-Related Peptide (CGRP) (human, not fully specified).
T1 peptide: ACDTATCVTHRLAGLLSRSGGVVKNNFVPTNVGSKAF
Put plainly: cell-based or functional assay.

Experiment [2] concerns the target T1, human Calcitonin Gene-Related Peptide …. Put plainly: cell-based or functional assay.
For experiment [3] the target is unchanged. Nature of the experiment: ELISA, human CGRP binding. On the technique in general: ELISA stands for enzyme-linked immunosorbent assay.
For the next experiment, the target named is T2, Rodent CGRP (rodent (murine)).
T2 construct: also called murine CGRP
T2 sequence (Q99JA0 83-119): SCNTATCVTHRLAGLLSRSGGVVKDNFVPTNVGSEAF
Nature of the experiment: ELISA, rodent CGRP binding.

The target in experiment [4] is T1, human Calcitonin Gene-Related Peptide …. Nature of the experiment: SPR Biacore T200; antibody amine-coupled to chip, CGRP as analyte. Here is the method:
The binding affinity between the chimeric IgG4 to antigen CGRP was determined using a Surface Plasmon Resonance (SPR) biosensor, Biacore T200 (GE Healthcare). 30B8G9B11 (“A3”) and chimeric IgG4 were each immobilized on the sensor chip through an amine coupling method. Antigen CGRP protein was used as analyte. The data of dissociation (kd) and association (kₐ) rate constants were obtained using Biacore T200 evaluation software. The equilibrium dissociation constants (KD) were calculated from the ratio of kd over kₐ.
On the technique in general: SPR reads the build-up and loss of mass on a sensor chip optically.

The target is the same in experiment [5]. Put plainly: SPR Biacore 8k; antibody amine-coupled to chip, CGRP as analyte. Here is the method: The recombinant IgGs secreted to the medium and were purified using protein A affinity chromatography. Evaluating from the SDS-PAGE, the purity of humanized IgGs were all over 90%. The affinities of purified antibodies binding to CGRP were determined using a Surface Plasmon Resonance (SPR) biosensor, Biacore 8k. Antibodies were immobilized on the sensor chip through amine coupling method. Antigen CGRP was used as the analyte. The data of dissociation (kd) and association (ka) rate constants were obtained using Biacore 8k evaluation software. The equilibrium dissociation constants (KD) were calculated from the ratio of kd over ka.

B1: murine mAb 30B8G9B11 (antibody, mouse IgG2a, V domains shown)
VH: EVQLQQSGPELVKPGASVKISCKASGYTFTDYYMNWVKQSHGKSLEWIGDVNPNNGGTHYNQKFKGKATLTVDKSSSTAYMELRSLTSEDSAVYYCASITIVPVYFDFWGQGTTLTVSS
VL: DIVMTQSQKFMSTSVGDRVSVTCKASQNVGPNVAWYRQKPGQSPKALIYSASYRYSGVPDRFTGSGSGTDFTLTISNVQSEDLADYICQQYNYYPYTFGGGTKLEIK
notes: Murine IgG2a, kappa; also called A3; Murine A3
A word on the EC50: it is the concentration at which the effect is half-maximal. As usually defined, the Kd is the free concentration of one partner at which half of the binding sites on the other are occupied at equilibrium, for simple one-to-one binding. The term koff denotes a measure of how fast the partners let go of each other. As usually defined, the kon is the rate constant with which the complex forms. Take B1: the “SK-N-MC CGRP IC50 (pM)” value in experiment [1] came out at 152 pM. The “SK-N-MC IC50 (pM)” value in experiment [2] was determined as 152 pM. Also, the EC50 in experiment [3] was 70 pM. In the experiment with Rodent CGRP, this molecule came in with an EC50 of 296 pM. Also, in experiment [4], the Kd came out at 2.92 pM, the off-rate constant (koff) turned out to be 1.56e-05 s⁻¹ and the kon turned out to be 5.33e+06 M⁻¹ s⁻¹.

B2: murine mAb 6G5C8C4 (antibody, mouse IgG2a, V domains shown)
VH: EVQLQQSGPELVKPGASVKISCKASGYTFTDYYMNWVKQSHGKSLEWIGDINPNNGGTTYNQKFKGKATLTVDKSSTTAYMELRSLTSEDSAVYYCAVITIVPYYFDYWGQGTTLTVSS
VL: DIVMTQSQKFMSTSVGDRVSVTCKASQNVGSNVAWYQQKPGQSPKALIYSASFRYSRVPDRFSGSGSGTDFTLTISNVQSEDLADYFCQQYNSYPYTFGAGTKLELK
notes: Murine IgG2a, kappa; also called A1; 6G5C8C4 ("A1")
As for B2, the “SK-N-MC CGRP IC50 (pM)” value in experiment [1] worked out at 101 pM. Besides, the EC50 in experiment [3] is 100 pM; with Rodent CGRP it was 361 pM.

B3: murine-human chimeric IgG4 derived from murine antibody A3 (antibody, V domains shown)
VH: EVQLQQSGPELVKPGASVKISCKASGYTFTDYYMNWVKQSHGKSLEWIGDVNPNNGGTHYNQKFKGKATLTVDKSSSTAYMELRSLTSEDSAVYYCASITIVPVYFDFWGQGTTLTVSS
VL: DIVMTQSQKFMSTSVGDRVSVTCKASQNVGPNVAWYRQKPGQSPKALIYSASYRYSGVPDRFTGSGSGTDFTLTISNVQSEDLADYICQQYNYYPYTFGGGTKLEIKR
notes: also called chimeric antibody
For B3, in experiment [2], the “SK-N-MC IC50 (pM)” value turned out to be 152 pM. In addition, in experiment [5], the equilibrium dissociation constant (Kd) was 3.53 pM, the koff was found to be 1.19e-05 s⁻¹ and the kon amounted to 3.37e+06 M⁻¹ s⁻¹. In experiment [4], the Kd was 2.4 pM, the koff worked out at 1.51e-05 s⁻¹ and the kon is 6.28e+06 M⁻¹ s⁻¹.

B4: murine mAb 24G7B10G2 (antibody, mouse IgG2a, V domains shown)
VH: EVQLLQSGPELMKPGTSVKISCKASGYTFTDYYMNWVKQSHGKSLEWIGDVNPNNGDTTYNQKFKGKATLTIDKSSSTAYMELRSLTSEDSAVYYCASITIVPLYFDFWGQGTTLAVSS
VL: DIVMTQSQKFMSTSVGDRVSVTCKASQNVGINVAWYQQKPGQSPKALLYSASYRYSGVPDRFTGSGSGTDFTLTISNVKSGDLAEYFCQQYNTYPYTFGGGTKLEIK
notes: Murine IgG2a, kappa; also called A2; 24G7B10G2 ("A2")
Take B4: the “SK-N-MC CGRP IC50 (pM)” value in experiment [1] was 195 pM. For the same molecule, the results for the EC50 (in experiment [3]; in the experiment with Rodent CGRP) were 80 pM and 328 pM, respectively.

B5: REMD 128 (antibody, human IgG4 S228P, kappa, V domains shown)
VH: QVQLVQSGAEVVKPGASVKVSCKASGYTFTDYYMNWVKQAPGQGLEWIGDVNPNNGGTHYNQKFKGRVTLTVDTSISTAYMELSRLRSDDTAVYYCASITIVPVYFDFWGQGTLVTVSS
VL: DIQLTQSPSFLSASVGDRVTITCKASQNVGPNVAWYRQKPGKAPKALIYSASYRYSGVPSRFSGSGSGTEFTLTISSLQPEDFATYICQQYNYYPYTFGQGTKLEIKR
notes: Humanized full-length IgG (IgG4 constant region, kappa); also called IgG 10 (H3/L2); 10 (H3/L2)
B5: the “SK-N-MC IC50 (pM)” value in experiment [2] was found to be 49.2 pM. Besides, in experiment [5], the Kd worked out at 1.37 pM, the koff is 5.79e-06 s⁻¹ and the kon was determined as 4.23e+06 M⁻¹ s⁻¹.

B6: REMD 128.1 (antibody, human IgG4 S228P, kappa, V domains shown)
VH: QVQLVQSGAEVVKPGASVKVSCKASGYTFTDYYMNWVKQAPGQGLEWIGDVNPNNGGTHYNQKFKGRVTLTVDTSISTAYMELSRLRSDDTAVYYCASITIVPVYFDFWGQGTLVTVSS
VL: DIQLTQSPSFLSTSVGDRVTITCKASQNVGPNVAWYRQKPGKSPKALIYSASYRYSGVPSRFSGSGSGTEFTLTISSLQPEDFATYICQQYNYYPYTFGQGTKLEIKR
notes: Humanized full-length IgG (IgG4 constant region, kappa); also called IgG 11 (H3/L3); 11 (H3/L3)
On to B6, for which the “SK-N-MC IC50 (pM)” value in experiment [2] was 38.9 pM. Further, in experiment [5], the Kd came to 1.57 pM, the koff was determined as 7.61e-06 s⁻¹ and the kon is 4.86e+06 M⁻¹ s⁻¹.

B7: REMD 128.2 (antibody, human IgG4 S228P, kappa, V domains shown)
VH: QVQLVQSGAEVVKPGASVKISCKASGYTFTDYYMNWVKQAPGQGLEWIGDVNPNNGGTHYNQKFKGRATLTVDTSISTAYMELSRLRSDDTAVYYCASITIVPVYFDFWGQGTLLTVSS
VL: DIQLTQSPSFLSTSVGDRVTITCKASQNVGPNVAWYRQKPGKSPKALIYSASYRYSGVPSRFSGSGSGTEFTLTISSLQPEDFATYICQQYNYYPYTFGQGTKLEIKR
notes: Humanized full-length IgG (IgG4 constant region, kappa); also called IgG 15 (H4/L3); 15 (H4/L3)
Regarding B7, in experiment [2], the “SK-N-MC IC50 (pM)” value was 60.4 pM. In addition, in experiment [5], the Kd worked out at 1.52 pM, the koff came to 7.57e-06 s⁻¹ and the kon amounted to 4.97e+06 M⁻¹ s⁻¹.

B8: REMD 128.3 (antibody, human IgG4 S228P, kappa, V domains shown)
VH: QVQLVQSGAEVVKPGASVKISCKASGYTFTDYYMNWVKQAPGQGLEWIGDVNPNNGGTHYNQKFKGRATLTVDTSISTAYMELSRLRSDDTAVYYCASITIVPVYFDFWGQGTLLTVSS
VL: DIQLTQSPSFLSASVGDRVTITCKASQNVGPNVAWYRQKPGKAPKALIYSASYRYSGVPSRFSGSGSGTEFTLTISSLQPEDFATYICQQYNYYPYTFGQGTKLEIKR
notes: Humanized full-length IgG (IgG4 constant region, kappa); also called IgG 14 (H4/L2); 14 (H4/L2)
Take B8: the “SK-N-MC IC50 (pM)” value in experiment [2] amounted to 59.8 pM. In addition, in experiment [5], the Kd was 1.54 pM, the koff was determined as 7.01e-06 s⁻¹ and the kon amounted to 4.55e+06 M⁻¹ s⁻¹.

Values taken from patent US20200407433A1 (REMD BIOTHERAPEUTICS, published 2020).
